# From US20130224246A1 (MACFARLANE BURNET INSTITUTE FOR MEDICAL RESEARCH AND PUBLIC …, published 2013)
# B1: MBP-LEL113-201, maltose-binding protein linked to the CD81 large extracellular loop between residues 113 to 201 (receptor)
# chain: FVNKDQIAKDVKQFYDQALQQAVVDDDANNAKAVVKTFHETLDCCGSSTLTALTTSVLKNNLCPSGSNIISNLFKEDCHQKIDDLFSGK
# notes: range 113-201; also called CD81-LEL; CD81 LEL
# Tests used:
# Δ123 E2661 M + C597A = Δ123 E2661 M + C597A (HCV genotype 1a H77c, UniProt P27958 409-661); test: EIA: E2 titrated on coated MBP-LEL113-201 (5 ug/ml), detected with anti-His
# [1] = target: WT E2661 M + C597A (C452A, C486A, C569A, C581A, C585A, C597A and C652A) (HCV genotype 1a H77c, UniProt P27958 384-661); test: as above
binder,measurement,setting,value
B1,binding result,Δ123 E2661 M + C597A,binds
same,binding result,[1],binds
